# B1: E3 ubiquitin-protein ligase RNF146 (Homo sapiens), Q9NTX7 (parent)
# chain: MMAGCGEIDHSINMLPTNRKANESCSNTAPSLTVPECAICLQTCVHPVSLPCKHVFCYLCVKGASWLGKRCALCRQEIPEDFLDKPTLLSPEELKAASRGNGEYAWYYEGRNGWWQYDERTSRELEDAFSKGKKNTEMLIAGFLYVADLENMVQYRRNEHGRRRKIKRDIIDIPKKGVAGLRLDCDANTVNLARESSADGADSVSAQSGASVQPLVSSVRPLTSVDGQLTSPATPSPDASTSLEDSFAHLQLSGDNTAERSHRGEGEEDHESPSSGRVPAPDTSIEETESDASSDSEDVSAVVAQHSLTQQRLLVSNANQTVPDRSDRSGTDRSVAGGGTVSVSVRSRRPDGQCTVTEV
# Variants of: B1
# Conditions: with parp1_human PARP1, P09874
# parp1_human PARP1, P09874, sequence (P09874 whole entry): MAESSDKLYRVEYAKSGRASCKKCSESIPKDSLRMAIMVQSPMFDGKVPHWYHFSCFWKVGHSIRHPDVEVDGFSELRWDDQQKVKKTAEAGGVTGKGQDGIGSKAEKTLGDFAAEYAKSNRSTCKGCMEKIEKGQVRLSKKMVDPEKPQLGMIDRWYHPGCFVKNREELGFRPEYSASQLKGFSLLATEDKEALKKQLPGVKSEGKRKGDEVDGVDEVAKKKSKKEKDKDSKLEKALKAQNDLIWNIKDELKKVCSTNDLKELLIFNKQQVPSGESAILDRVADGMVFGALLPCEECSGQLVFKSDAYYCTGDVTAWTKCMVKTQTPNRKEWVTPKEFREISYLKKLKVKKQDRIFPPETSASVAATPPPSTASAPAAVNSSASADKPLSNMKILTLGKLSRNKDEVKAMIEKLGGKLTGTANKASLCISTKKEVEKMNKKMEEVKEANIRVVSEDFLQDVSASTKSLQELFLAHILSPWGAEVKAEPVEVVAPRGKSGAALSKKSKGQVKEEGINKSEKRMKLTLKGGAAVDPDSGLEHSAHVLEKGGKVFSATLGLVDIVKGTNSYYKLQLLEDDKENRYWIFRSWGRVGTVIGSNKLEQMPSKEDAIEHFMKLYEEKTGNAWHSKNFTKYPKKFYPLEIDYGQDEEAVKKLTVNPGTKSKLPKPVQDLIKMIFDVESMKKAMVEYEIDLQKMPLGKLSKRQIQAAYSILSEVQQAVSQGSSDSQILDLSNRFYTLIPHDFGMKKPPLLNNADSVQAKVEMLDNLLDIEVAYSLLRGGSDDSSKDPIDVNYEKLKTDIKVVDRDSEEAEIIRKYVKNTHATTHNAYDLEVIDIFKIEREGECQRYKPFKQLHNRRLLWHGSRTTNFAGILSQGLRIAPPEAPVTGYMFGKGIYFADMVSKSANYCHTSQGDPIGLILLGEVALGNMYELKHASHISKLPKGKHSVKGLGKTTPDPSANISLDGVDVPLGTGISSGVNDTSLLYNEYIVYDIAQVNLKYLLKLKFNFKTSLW
row,Variant,effect of a mutation on the interaction
1,H54A,with no effect

# From IntAct's records for PubMed 21799911
